Measured values: PMC5707625 (Biochemistry, 2017)

Assays:
[1] = target: T1, BlaC (Mycobacterium tuberculosis, UniProt P9WKD3); experiment: […] Å crystal structure; format: binding
[2] = target: T1, BlaC; experiment: biochemical; format: binding
[3] = tested on: O=C(Cc1cccs1)N[C@@H]1C(=O)N2C(C(=O)O)=C(/C=C/c3ccc([N+](=O)[O-])cc3[N+](=O)[O-])CS[C@H]12; experiment: purified protein; details: pH 6.0

T1 sequence (P9WKD3 43-307 limits assumed): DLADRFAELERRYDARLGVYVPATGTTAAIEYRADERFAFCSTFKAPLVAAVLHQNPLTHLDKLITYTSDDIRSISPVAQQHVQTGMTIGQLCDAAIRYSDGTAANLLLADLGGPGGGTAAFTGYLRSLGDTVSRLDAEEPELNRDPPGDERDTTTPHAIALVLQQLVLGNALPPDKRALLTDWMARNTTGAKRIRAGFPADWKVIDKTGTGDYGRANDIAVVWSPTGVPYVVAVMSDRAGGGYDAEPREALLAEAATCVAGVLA

Compound: CC(=O)O [acetate]
- 2.1 Å crystal structure [1]: acetate occupies the carboxylate binding site and forms hydrogen bridges with residues Ser-130, Thr-235, and Thr-237

Compound: O=P(O)(O)O [phosphate]
- Kd [2]: 27 ± 11 mM

Compound: BlaC (Mycobacterium tuberculosis H37Rv)
- Km [3]: 38 ± 7 µM
- kcat [3]: 69 ± 1 s⁻¹
- kcat/Km [3]: 1.8e+06 ± 300000 M⁻¹ s⁻¹
